Source: patent US20040038236A1

How the values were obtained:
[1] = biological target: GABAA receptor alpha-1 subunit (GABRA1) (human) (UniProt P14867); assay: cell-based or functional assay
[2] = biological target: GABAA receptor beta-2 subunit (GABRB2) (human) (UniProt P47870); assay: cell-based or functional assay
Chain of GABAA receptor beta-2 subunit (GABRB2) (human) (P47870 26-512): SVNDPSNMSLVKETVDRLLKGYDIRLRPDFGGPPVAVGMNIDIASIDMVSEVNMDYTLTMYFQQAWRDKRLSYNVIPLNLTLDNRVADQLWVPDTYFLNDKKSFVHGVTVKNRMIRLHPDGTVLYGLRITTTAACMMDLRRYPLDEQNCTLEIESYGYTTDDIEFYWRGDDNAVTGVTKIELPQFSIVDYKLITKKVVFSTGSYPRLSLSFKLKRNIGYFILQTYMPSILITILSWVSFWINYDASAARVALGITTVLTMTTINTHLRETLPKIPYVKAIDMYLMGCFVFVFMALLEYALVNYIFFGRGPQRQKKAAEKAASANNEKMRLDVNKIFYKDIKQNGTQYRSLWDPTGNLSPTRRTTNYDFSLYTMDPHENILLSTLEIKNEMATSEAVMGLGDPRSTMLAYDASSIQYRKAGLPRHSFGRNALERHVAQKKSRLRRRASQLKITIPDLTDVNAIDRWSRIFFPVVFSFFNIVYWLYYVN

Chain of GABAA receptor alpha-1 subunit (GABRA1) (human) (P14867 28-456): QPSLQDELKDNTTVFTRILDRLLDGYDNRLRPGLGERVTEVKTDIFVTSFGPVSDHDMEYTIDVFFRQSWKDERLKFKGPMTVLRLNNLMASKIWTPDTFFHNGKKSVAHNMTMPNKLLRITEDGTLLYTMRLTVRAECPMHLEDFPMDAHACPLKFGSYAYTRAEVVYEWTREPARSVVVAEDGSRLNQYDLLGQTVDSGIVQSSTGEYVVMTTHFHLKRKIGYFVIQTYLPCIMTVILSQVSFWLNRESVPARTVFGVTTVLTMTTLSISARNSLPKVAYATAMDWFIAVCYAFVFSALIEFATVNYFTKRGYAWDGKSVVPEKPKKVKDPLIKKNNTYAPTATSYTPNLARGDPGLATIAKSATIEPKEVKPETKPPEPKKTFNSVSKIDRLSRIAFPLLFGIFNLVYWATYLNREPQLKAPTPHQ

Row | Substance | partial inhibition of the GABA current by Zn2+ (10 µM), Xenopus oocytes, two-electrode voltage clamp [1] | partial inhibition of the GABA current by Zn2+ (10 µM), Xenopus oocytes, two-electrode voltage clamp [2]
1 | GABAA receptor gamma-2 subunit R43Q mutant, GABRG2(R43Q) (from UniProt P18507 40-475) | 40% | 40%
2 | wild-type GABAA receptor gamma-2 subunit (GABRG2) (from UniProt P18507 40-475) | 37% | 37%
